# Test results taken from patent publication US20240270826A1.
# Experiments:
# [1] = molecular target: Human SARS-CoV-2 Kappa (B.1.617.1) S (SARS-CoV-2 (Kappa variant)) (UniProt P0DTC2); assay: flow cytometry SVNA: VHH-Fc inhibits S binding to ACE2 on Vero E6 cells
# [2] = molecular target: Human SARS-CoV-2 Gamma (P.1) S (SARS-CoV-2 (Gamma variant)) (UniProt P0DTC2); assay: as above
# [3] = molecular target: Human SARS-CoV-2 Delta (B.1.617.2) S (SARS-CoV-2 (Delta variant)) (UniProt P0DTC2); assay: as above
# [4] = molecular target: SARS-CoV-2 spike protein S on live virus, Alpha variant (SARS-CoV-2 (Alpha variant)) (UniProt P0DTC2); assay: cell-based or functional assay
substance,measurement,setting,value
VHH-72 VHH-Fc (Fc fusion),IC50,[1],8.5 nM
same,IC50,[2],3.3 nM
same,IC50,[3],10.5 nM
same,LVNA IC50,[4],1.86 nM
